Experimental data: patent US20200055919A1 (ACCELERON PHARMA, published 2020)

How the values were obtained:
[1] = target: T1, GDF11 (UniProt O95390 299-407); assay: SPR (Biacore), Fc fusion captured by anti-Fc antibody, ligand injected, 37 C
T1 construct: also called BMP11
T1 sequence (looked up): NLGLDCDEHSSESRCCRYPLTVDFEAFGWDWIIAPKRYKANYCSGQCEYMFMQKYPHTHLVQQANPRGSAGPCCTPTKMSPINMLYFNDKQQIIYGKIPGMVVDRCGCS
Experimental: (§1) A Biacore™-based binding assay was used to compare the ligand binding kinetics of an ActRIIB-Fc:ActRIIB(L79E)-Fc heterodimer with those of unmodified ActRIIB-Fc homodimer. Fusion proteins were captured onto the system using an anti-Fc antibody. Ligands were then injected and allowed to flow over the captured receptor protein at 37° C. Results are summarized in the table below, in which ligand off-rates (kd) most indicative of effective ligand traps are denoted in bold.

[2] = target: T2, GDF3 (UniProt Q9NR23 251-364); assay: as above
T2 sequence (looked up): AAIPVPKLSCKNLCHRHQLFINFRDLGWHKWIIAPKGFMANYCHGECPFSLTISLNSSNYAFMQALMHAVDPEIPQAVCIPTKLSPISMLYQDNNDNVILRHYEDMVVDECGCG
Experimental: as §1

[3] = target: T3, BMP10 (UniProt O95393 317-424); assay: as above
T3 sequence (looked up): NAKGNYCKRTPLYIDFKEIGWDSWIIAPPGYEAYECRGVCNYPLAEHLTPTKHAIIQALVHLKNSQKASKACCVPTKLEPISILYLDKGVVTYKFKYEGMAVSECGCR
Experimental: as §1

[4] = target: T4, BMP9 (UniProt Q9UK05 320-429); assay: as above
T4 sequence (looked up): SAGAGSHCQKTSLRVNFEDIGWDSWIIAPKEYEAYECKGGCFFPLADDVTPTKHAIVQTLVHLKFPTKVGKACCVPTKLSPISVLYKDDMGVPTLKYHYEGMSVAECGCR
Experimental: as §1

[5] = target: T5, activin A (UniProt P08476 311-426); assay: as above
T5 sequence (looked up): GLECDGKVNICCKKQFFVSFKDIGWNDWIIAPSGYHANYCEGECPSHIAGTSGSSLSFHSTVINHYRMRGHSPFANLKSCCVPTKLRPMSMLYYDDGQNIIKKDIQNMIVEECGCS
Experimental: as §1

[6] = target: T6, activin B (UniProt P09529 293-407); assay: as above
T6 sequence (looked up): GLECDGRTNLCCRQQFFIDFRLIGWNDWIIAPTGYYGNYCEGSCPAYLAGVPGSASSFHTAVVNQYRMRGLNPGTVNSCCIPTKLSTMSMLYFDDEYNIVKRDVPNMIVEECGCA
Experimental: as §1

[7] = target: T7, BMP6 (UniProt P22004 382-513, limits assumed); assay: as above
T7 sequence (looked up): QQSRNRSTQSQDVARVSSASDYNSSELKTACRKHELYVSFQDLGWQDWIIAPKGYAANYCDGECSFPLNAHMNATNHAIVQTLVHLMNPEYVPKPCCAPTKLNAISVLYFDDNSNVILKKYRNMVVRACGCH
Experimental: as §1

[8] = target: T8, GDF8 (UniProt O14793 267-375); assay: as above
T8 construct: also called myostatin
T8 sequence (looked up): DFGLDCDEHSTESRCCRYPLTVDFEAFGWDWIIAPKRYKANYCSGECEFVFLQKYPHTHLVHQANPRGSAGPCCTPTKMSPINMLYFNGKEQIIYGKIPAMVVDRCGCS
Experimental: as §1

[9] = target: T3, BMP10; assay: SPR (Biacore), 37 C
Experimental: as §1

[10] = target: T5, activin A; assay: SPR (Biacore), 37 C
Experimental: as §1

Kd [1]: 0.009 nM | koff [1]: 0.00036 s⁻¹ | kon [1]: 4e+07 M⁻¹ s⁻¹ | Kd [2]: 10 nM | koff [2]: 0.0059 s⁻¹ | kon [2]: 580000 M⁻¹ s⁻¹ | Kd [3]: 0.042 nM | koff [3]: 0.002 s⁻¹ | kon [3]: 4.8e+07 M⁻¹ s⁻¹ | Kd [4]: > 2.8 nM | Kd [5]: 0.17 nM | koff [5]: 0.0015 s⁻¹ | kon [5]: 8.8e+06 M⁻¹ s⁻¹ | Kd [6]: 0.025 nM | koff [6]: 0.00021 s⁻¹ | kon [6]: 8.3e+06 M⁻¹ s⁻¹ | Kd [7]: 0.056 nM | koff [7]: 0.018 s⁻¹ | kon [7]: 3.3e+08 M⁻¹ s⁻¹ | Kd [8]: 0.15 nM | koff [8]: 0.0005 s⁻¹ | kon [8]: 3.4e+06 M⁻¹ s⁻¹ | fold faster off-rate compared to ActRIIB-Fc homodimer [9]: ~10 fold | fold faster off-rate compared to ActRIIB-Fc homodimer [10]: ~10 fold
B1: ActRIIB-Fc:ActRIIB(L79E)-Fc heterodimer (Fc fusion)
chain 1: GRGEAETRECIYYNANWELERTNQSGLERCEGEQDKRLHCYASWRNSSGTIELVKKGCWEDDFNCYDRQECVATEENPQVYFCCCEGNFCNERFTHLPEAGGPEVTYEPPPTAPT
chain 2: GRGEAETRECIYYNANWELERTNQSGLERCEGEQDKRLHCYASWRNSSGTIELVKKGCWLDDFNCYDRQECVATEENPQVYFCCCEGNFCNERFTHLPEAGGPEVTYEPPPTAPT
notes: also called ActRIIB-Fc:ActRIIB(L79E)-Fc heteromer; not shown: linker and engineered G1Fc; linker and complementary engineered G1Fc
